Experimental data published in US20210147574A1 (UNIVERSIT DEGLI STUDI DI FIRENZE, published 2021).

Experiments:
hERG1 [1] = target: T1, hERG1 (human, UniProt Q12809 1-1159); test: cell-based or functional assay
S5-Pore peptide = target: T2, S5-Pore peptide; test: binding to immobilized antigen (method section: ELISA on plates coated with S5-Pore peptide)
T2 construct: Peptide of the S5-pore extracellular portion of hERG1; also called S5PORO peptide; peptide S5PORO
T2 peptide: EQPHMDSRIGWLHN
Description: To evaluate if the two engineered antibodies, scFv-hERG1-G3 and scFv-hERG1-D8Cys, have still the ability to bind the antigen and afterwards to investigate the different affinity of the two antibodies ELISA assays were performed using plates coated with S5-Pore peptide (sequence: […]), towards which the antibody is directed. This peptide is the same we used to screen anti-hERG1 A7 antibody.

hERG1 [2] = target: T1, hERG1; test: immunofluorescence on fixed and live HEK293-hERG1 cells, intensity by ImageJ
Description: Then an immunofluorescence analysis was performed using scFv-hERG1-G3 and scFv-hERG1-D8Cys on fixed cells, to determine the immunoreactivity of the two antibodies. […] Data analysis obtained using ImageJ Software is reported in the graphs reported in panel C.
Cells were seeded O/N on glass coverslips and then washed once with PBS and fixed with 4% paraformaldeide for 20 min at room temperature. Blocking was performed with 10% BSA for 2 h at room temperature. Antibody incubation was performed using scFv-hERG1-G3, scFv-hERG1-D8Cys, diluted 1:20 in blocking solution and incubated for 2 and half hours, followed by anti-His (1:250; Abcam) O/N incubation in blocking solution. The following day, cells were washed three times with PBS and incubated with anti-mouse Alexa488 antibody (Invitrogen) for 1 h. Whereas, scFv-hERG1-G3-Alexa488 and scFv-hERG1-D8Cys-Alexa488, diluted 1:20 in blocking solution, were incubated O/N at 4° C.
Cells were grown O/N on 60 mm plates (Sarstedt) using an agarose (15 g/L) ring in order to isolate cells and minimize the volumes of reagents needed for incubations. Cells were incubated with scFv-hERG1-G3-Alexa488 and scFv-hERG1-D8Cys-Alexa488 diluted 1:20 in complete culture medium in a 37° C. incubator with 5% C02 for 4 h. Rivelation was performed using Hoechst, as previously described. Cells were visualized on a inverted light microscopy (Nikon, Eclipse TE300).

T1 sequence (Q12809 whole entry): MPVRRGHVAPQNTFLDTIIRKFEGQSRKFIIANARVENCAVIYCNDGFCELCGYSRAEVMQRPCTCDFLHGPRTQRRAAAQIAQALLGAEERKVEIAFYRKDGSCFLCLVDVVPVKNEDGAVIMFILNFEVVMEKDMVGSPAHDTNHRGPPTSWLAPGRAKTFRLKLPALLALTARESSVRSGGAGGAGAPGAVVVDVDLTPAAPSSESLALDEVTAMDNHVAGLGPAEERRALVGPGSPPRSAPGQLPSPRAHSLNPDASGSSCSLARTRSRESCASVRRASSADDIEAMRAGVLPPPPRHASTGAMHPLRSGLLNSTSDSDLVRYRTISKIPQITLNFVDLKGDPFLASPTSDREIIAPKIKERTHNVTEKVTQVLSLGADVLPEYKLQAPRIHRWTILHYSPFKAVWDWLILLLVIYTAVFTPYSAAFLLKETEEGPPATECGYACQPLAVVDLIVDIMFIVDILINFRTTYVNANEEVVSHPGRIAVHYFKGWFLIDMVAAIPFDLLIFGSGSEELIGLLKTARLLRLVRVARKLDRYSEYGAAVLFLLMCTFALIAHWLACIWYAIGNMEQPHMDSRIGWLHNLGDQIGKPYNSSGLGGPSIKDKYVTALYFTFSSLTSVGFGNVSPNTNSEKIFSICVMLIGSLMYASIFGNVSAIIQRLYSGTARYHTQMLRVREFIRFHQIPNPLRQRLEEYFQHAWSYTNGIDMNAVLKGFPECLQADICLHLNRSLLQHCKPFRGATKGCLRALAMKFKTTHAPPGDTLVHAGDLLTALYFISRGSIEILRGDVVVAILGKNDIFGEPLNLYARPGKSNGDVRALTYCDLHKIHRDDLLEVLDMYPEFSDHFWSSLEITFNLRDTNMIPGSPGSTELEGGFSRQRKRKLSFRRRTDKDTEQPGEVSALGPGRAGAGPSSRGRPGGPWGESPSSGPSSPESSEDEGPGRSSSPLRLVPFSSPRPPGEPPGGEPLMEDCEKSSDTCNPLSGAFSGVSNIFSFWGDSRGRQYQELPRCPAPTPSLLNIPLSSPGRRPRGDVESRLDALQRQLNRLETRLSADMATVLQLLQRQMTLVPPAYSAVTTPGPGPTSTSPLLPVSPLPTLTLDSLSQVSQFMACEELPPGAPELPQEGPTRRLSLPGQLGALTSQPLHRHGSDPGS

B1: scDb-hERG1-Cys-β1 (bispecific antibody)
chain: EAECADEVQLQQSGPELVKPGASVKISCKTSGYTFTEYTVHWVKQSHGKSLEWIGGINPNGGTTYNQKFKGKATLTIDKSSSSAFMELRSLTSEDSAVYYCATGWGPDYWGQGTTLTVSSAKTTPPSVYPLAPGSSDIVMTQTPTTMAASPGDKITITCSVSSIISSNYLHWYSQKPGFSPKLLIYRTSNLASGVPPRFSGSGSGTSYSLTIGTMEAEDVATYYCQQGSDIPLTFGDGTKLDLKRADAAPTVSGGGGSGGGGSGGGGSGGGGSEVKVVESGGGLVKPGGSLKLSCAASGFTFSSYTMSWVRQTPEKRLEWVATISSGGSYTYYPDSVKGRFTISRDKAKNTLYLQMGSLKSEDTAMYYCTRIGYDEDYAMDHWGQGTSVTVSSAKTTPPSVYSALDIVLTQSPLTLSVNIGQPASISCKSSQSLLYTNGKTYFNWLLQRPGQSPKRLIYLVSKLDSGVPDRFTGSGSGTDFTLKISRVEAEDLGVYYCAQGTHFPWTFGGGTKLEIKRADAAPTVSAAAEQKLISEEDLNGAPRHHHHHHHH
With B1 the “IC50, cell viability of MDA-MB 231 cells” value (hERG1 [1]) was 42 µg/mL and the “IC50, cell viability of PANC-1 cells” value (hERG1 [1]) was 24 µg/mL.

B2: scFv-hERG1-D8Cys (scFv)
scFv: EVQLQQSGPELVKPGASVKISCKTSGYTFTEYTVHWVKQSHGKSLEWIGGINPNGGTTYNQKFKGKATLTIDKSSSSAFMELRSLTSEDSAVYYCATGWGPDYWGQGTTLTVSSAKTTPPSVYPLAPGSSGGGGSGGGGSGGSALDIVLTQSPLTLSVNIGQPASISCKSSQSLLYTNGKTYFNWLLQRPGQSPKRLIYLVSKLDSGVPDRFTGSGSGTDFTLKISRVEAEDLGVYYCAQGTHFPWTFGGGTKLEIKRADAAPTVSAAAEQKLISEEDLNGAA
notes: Clone D8, expressed in Pichia pastoris from pPIC9K with a 6xHis tag; Also tested after conjugation with Alexa 488; also called scFv-hERG1-Cys; anti-hERG1-Cys scFv
B2: binds (S5-Pore peptide); binds (hERG1 [2]).
